This is an account of results in patent US20180371460, “Depletion of Abundant Serum Proteins to Facilitate Biomarker Discovery” (UNIVERSITY OF UTAH RESEARCH FOUNDATION, published 2018).

The target of series [1] is T1, Human serum albumin (HSA), denatured (Homo sapiens, UniProt P02768 P02768:25-609). The series can be described thus: EMSA; tested in lane 5, not listed among binders; PBS pH 6, 50 mM DTT, 1% SDS. The conditions noted are these: tags: none; denatured with 1% surfactant and reduced with DTT or TCEP; label: 5'-fluorescein. The protocol: (§1) Gel shift assays were then performed to determine which of these nucleic acids would bind to HSA under denaturing and reducing conditions. Specifically, 40 nmol of the fluorescein labeled DNA was incubated with 3 μM denatured HSA in PBS (pH=6) containing 50 mM fresh DTT and 1% SDS at room temperature for 1 hr. The samples were then run on an 8% nondenaturing gel (PBS pH=6, 0.1% SDS) at 100 V for 1 hour at 4° C. The gels were imaged using a Typhoon FLA 9500 gel imager using a 473 nm laser and an LPB filter. FIG. 12 is a representative gel showing the results of the gel shaft assays for the fluorescein labeled forms of the following nucleic acids: 35 (lane 1), 36 (lane 2), 40 (lane 3), H1 (lane 4), H2 (lane 5), H3 (lane 6) and H5 (lane 7).

Series [2] has as its target T1, Human serum albumin (HSA), denatured. The series can be described thus: pulldown; 1% surfactant, 50 mM DTT or 25 mM TCEP, PBS pH 7.4, 40 ug/mL HSA. The conditions noted are these: tags: none; denatured with 1% surfactant and reduced with DTT or TCEP; label: 5'-fluorescein (gel shift) or 5'-thiol-hexaethylene glycol on agarose (pull-down). As for the experimental part: The beads were equilibrated with 3 bed volumes of the binding buffer used during the pull-down prior to protein addition. Protein (40 μg/mL) was then added to the columns and placed on a nutating mixer for 45 min followed by 15 minutes of stationary incubation. The supernatant was then collected via centrifugation. The resin was then washed twice with 700 μL binding buffer, collecting the flow-through each time. Bound protein was then eluted using 300 μL 4 M urea with 0.1% surfactant and repeated to recover all bound protein. For each elution, the column was placed on a nutating mixer for 30 min. The A280 was then measured for each aliquot to determine the percent bound.

Series [3] shares this target. In words: EMSA; tested in lane 4, not listed among binders; PBS pH 6, 50 mM DTT, 1% SDS. As to conditions: tags: none; denatured with 1% surfactant and reduced with DTT or TCEP; label: 5'-fluorescein. The protocol:
as §1

For series [4] the target is unchanged. In words: EMSA; tested in lane 6, not listed among binders; PBS pH 6, 50 mM DTT, 1% SDS. The conditions noted are these: tags: none; denatured with 1% surfactant and reduced with DTT or TCEP; label: 5'-fluorescein. As for the experimental part:
as §1

Series [5] shares this target. The series can be described thus: pulldown; 1% SDS or Tween 80 with 50 mM DTT, or 1% Tween 80 with 25 mM TCEP, PBS pH 7.4; blank beads control. As to conditions: tags: none; denatured with 1% surfactant and reduced with DTT or TCEP; label: 5'-fluorescein (gel shift) or 5'-thiol-hexaethylene glycol on magnetic beads (pull-down). As for the experimental part:
Pull-down. HSA (2 mg/mL from Gemini) was denatured in 1% surfactant (either Tween 80 or SDS) and 50 mM DTT in PBS (pH=7.4) for 1 hr. The binding buffers consisted of 50 mM freshly prepared DTT. The beads were equilibrated with 2 mL of the binding buffer used during the pull-down prior to protein addition. Protein (40 μg/mL) was then added to the columns and these were placed on a nutating mixer for 1 hr. The samples were then placed on the magnetic separation stand for 4 min, and the supernatant was removed. The beads were then washed twice with 1 mL binding buffer, collecting the supernatant each time. Bound protein was eluted using 300 μL of 4M urea with 0.1% surfactant and repeated to recover all bound protein. For each elution, the beads were incubated at 95° C. for 10 min. The beads were regenerated by rinsing with 1 mL of 1M NaCl followed by 2 mL of PBS. They were then stored in PBS in the refrigerator.
The aliquots were then concentrated using a 10 kDa Amicon spin filter. The samples were run on a NuPAGE™ Novex™ 4-12% Bis-Tris protein gel at 200 V for 40 min and stained with Spyro Ruby. The gels were visualized with a Typhoon FLA 9500 gel imager using a 473 nm laser and an LPG filter. FIG. 13 is a gel showing the results of the pull down (using nucleic acid 36) of HSA denatured with SDS (upper image) or Tween 80 (lower image) and reduced with DTT.
HSA binding with TCEP. […]

Series [6] shares this target. In words: EMSA; tested in lane 7, not listed among binders; PBS pH 6, 50 mM DTT, 1% SDS. The conditions noted are these: tags: none; denatured with 1% surfactant and reduced with DTT or TCEP; label: 5'-fluorescein. As for the experimental part: as §1
The target is the same in series [7]. The series can be described thus: EMSA; tested in lane 1, not listed among binders; PBS pH 6, 50 mM DTT, 1% SDS. The conditions noted are these: tags: none; denatured with 1% surfactant and reduced with DTT or TCEP; label: 5'-fluorescein. As for the experimental part:
as §1

T1 sequence (P02768 25-609, one chain of several): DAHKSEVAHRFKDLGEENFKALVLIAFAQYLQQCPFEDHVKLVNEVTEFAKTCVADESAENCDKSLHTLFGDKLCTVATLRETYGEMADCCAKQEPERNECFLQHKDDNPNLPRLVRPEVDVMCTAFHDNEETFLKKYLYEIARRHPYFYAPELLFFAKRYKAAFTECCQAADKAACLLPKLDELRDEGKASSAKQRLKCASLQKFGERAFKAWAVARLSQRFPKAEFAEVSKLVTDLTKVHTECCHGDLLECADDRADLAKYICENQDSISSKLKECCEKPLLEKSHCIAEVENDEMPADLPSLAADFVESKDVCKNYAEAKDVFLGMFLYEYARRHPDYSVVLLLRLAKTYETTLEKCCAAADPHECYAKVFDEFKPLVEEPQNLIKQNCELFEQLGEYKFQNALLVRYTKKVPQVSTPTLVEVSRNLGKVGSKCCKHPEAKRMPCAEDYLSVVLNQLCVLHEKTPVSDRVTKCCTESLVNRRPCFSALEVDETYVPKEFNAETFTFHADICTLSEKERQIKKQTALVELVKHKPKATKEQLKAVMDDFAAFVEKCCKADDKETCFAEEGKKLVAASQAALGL

B1: H2 (ssDNA)
DNA: GCGCATACCAGCTTATTCAATTTCAAAGGCTGACCGGATGGGCTTCGTGACCGGGTACGCCACTGCCTCGTGAGATAGTAAGTGCAATCTCGGC
As to B1, the binding result in series [1] is recorded as “no binding”.

B2: 19 (ssDNA)
DNA: GCGCATACCAGCTTATTCAATTAACGTGTAGAGGTGTTCACGCACCACGCCGACTGTGGTTGACCCACAGTTAGATAGTAAGTGCAATCTCGGC
Turning to B2, the binding signal in series [2] worked out at 10.3 % HSA bound.

B3: H1 (ssDNA)
DNA: GCGCATACCAGCTTATTCAATTACGCTCAGGACTAAAAATGGGCGTGACCATGAGCTCAGTATGGGCGTTACAGATAGTAAGTGCAATCTCGGC
Regarding B3, the binding result in series [3] was “no binding”.

B4: H3 (ssDNA)
DNA: GCGCATACCAGCTTATTCAATTGATCCATACAAGGGTAGGTTGACTTCCGCCCAAGGGGGCGAGGCCGTGAGATAGTAAGTGCAATCTCGGC
Turning to B4, the binding result in series [4] is recorded as “no binding”.

B5: 36 (ssDNA)
DNA: GCGCATACCAGCTTATTCAATTCGGATAGACAACATGGGGAAGAACAGTGTCTAGTCGTGGGTTGCTCTGTAAGATAGTAAGTGCAATCTCGGC
On to B5, for which the binding result in series [5] is reported as “binds”.

B6: H5 (ssDNA)
DNA: GCGCATACCAGCTTATTCAATTAGGAACGCACCCGAGTGTTGCGCGAGCCAGTGGCTGGTTGGCCCGTATAAGATAGTAAGTGCAATCTCGGC
In the case of B6, the binding result in series [6] was “no binding”.

B7: P1 (ssDNA)
DNA: GCGCATACCAGCTTATTCAATTGCATAGTCATGCGGGAATAGTTTTCGATGAGGGCTATTGGAGGCCCCAGCAGATAGTAAGTGCAATCTCGGC
For the molecule B7, in series [2], the binding signal was 12.7 % HSA bound.

B8: H6 (ssDNA)
DNA: GCGCATACCAGCTTATTCAATTGCGTACCTAGGATTTACTTTCTCAAGATATTTGGAGTGACAAGTGGCATAAGATAGTAAGTGCAATCTCGGC
Regarding B8, the binding signal in series [2] stood at 10 % HSA bound.

B9: 40 (ssDNA)
DNA: GCGCATACCAGCTTATTCAATTCGGTAGTGCAGCGGCTTGAAATCAGCCGTGCTTTCGGGACGGAACTACTCAGATAGTAAGTGCAATCTCGGC
B9: in series [2], the binding signal came to 10.3 % HSA bound.

B10: 35 (ssDNA)
DNA: GCGCATACCAGCTTATTCAATTCGGTACGTGACGCAAAAAAGGTCGGGCGGCTGACATGGCACCTCGTCTAAAGATAGTAAGTGCAATCTCGGC
B10: in series [7], the binding result is reported as “no binding”.
